Measured values taken from patent US20240400654A1.
Numbering of substitutions follows the chain as printed. Names and notes keep the numbering of the source. Values joined by “and” are separate entries in the source; they are usually repeats but may differ in a detail not shown here. Identical values can stand only once.

B1: KB001 mouse Fab variant VL S57W (Fab, V domains shown)
VH: EVQLKQSGPGLVAPSQSLSITCTVSGFSLSIYSVHWVRQPPGKGLEWLGMIWGGGSSDYNSALKSRLSISKDNSKSQVFLKMNSLQTDDTAMYYCARNGNFYAMDYWGQGTSVTVSS
VL: QIVLTQSPAIMSASLGERVTMTCTASSSVSSSFLHWYQQKPGSSPQLWIYSTSNLAWGVPARFSGSGSGTSYSLTISSMEAEDAATYYCHQYHHSPYIYTFGGGTKLEIK
B2: KB001 mouse Fab variant VL Y97L (Fab, V domains shown)
VH: B1 VH
VL: B1 VL with W57S, Y97L
B3: KB001 mouse Fab variant VL T100I (Fab, V domains shown)
VH: B1 VH
VL: B1 VL with W57S, T100I
B4: KB001 mouse Fab variant VL H93N (Fab, V domains shown)
VH: B1 VH
VL: B1 VL with W57S, H93N
B5: KB001 mouse Fab variant VL Y97K (Fab, V domains shown)
VH: B1 VH
VL: B1 VL with W57S, Y97K
B6: KB001 mouse Fab variant VL T100V (Fab, V domains shown)
VH: B1 VH
VL: B1 VL with W57S, T100V
B7: KB001 mouse Fab variant VL S95N (Fab, V domains shown)
VH: B1 VH
VL: B1 VL with W57S, S95N
B8: KB001 mouse Fab variant VL H94Y (Fab, V domains shown)
VH: B1 VH
VL: B1 VL with W57S, H94Y
B9: KB001 mouse Fab variant VL S95H (Fab, V domains shown)
VH: B1 VH
VL: B1 VL with W57S, S95H
B10: KB001 mouse Fab variant VL S57M (Fab, V domains shown)
VH: B1 VH
VL: B1 VL with W57M
B11: KB001 mouse Fab variant VL Y97H (Fab, V domains shown)
VH: B1 VH
VL: B1 VL with W57S, Y97H
B12: KB001 mouse Fab variant VL S95E (Fab, V domains shown)
VH: B1 VH
VL: B1 VL with W57S, S95E
B13: KB001 mouse Fab variant VL Y97F (Fab, V domains shown)
VH: B1 VH
VL: B1 VL with W57S, Y97F
B14: KB001 mouse Fab variant VL S57R (Fab, V domains shown)
VH: B1 VH
VL: B1 VL with W57R
B15: KB001 mouse Fab variant VL H90W (Fab, V domains shown)
VH: B1 VH
VL: B1 VL with W57S, H90W
B16: KB001 mouse Fab variant VL S95Y (Fab, V domains shown)
VH: B1 VH
VL: B1 VL with W57S, S95Y
B17: KB001 mouse Fab variant VL Q91E (Fab, V domains shown)
VH: B1 VH
VL: B1 VL with W57S, Q91E
B18: KB001 mouse Fab variant VL S95W (Fab, V domains shown)
VH: B1 VH
VL: B1 VL with W57S, S95W
B19: KB001 mouse Fab variant VL I98R (Fab, V domains shown)
VH: B1 VH
VL: B1 VL with W57S, I98R
B20: KB001 mouse Fab variant VL Y97V (Fab, V domains shown)
VH: B1 VH
VL: B1 VL with W57S, Y97V
B21: KB001 mouse Fab variant VL S95Q (Fab, V domains shown)
VH: B1 VH
VL: B1 VL with W57S, S95Q
B22: KB001 mouse Fab variant VL S95A (Fab, V domains shown)
VH: B1 VH
VL: B1 VL with W57S, S95A
B23: KB001 parental mouse Fab (FASEBA), WT clone (Fab, V domains shown)
VH: B1 VH
VL: B1 VL with W57S
B24: KB001 mouse Fab variant VL Y97R (Fab, V domains shown)
VH: B1 VH
VL: B1 VL with W57S, Y97R
B25: KB001 mouse Fab variant VL Y97Q (Fab, V domains shown)
VH: B1 VH
VL: B1 VL with W57S, Y97Q
B26: KB001 mouse Fab variant VL Y97S (Fab, V domains shown)
VH: B1 VH
VL: B1 VL with W57S, Y97S
B27: KB001 mouse Fab variant VL H94F (Fab, V domains shown)
VH: B1 VH
VL: B1 VL with W57S, H94F
B28: KB001 mouse Fab variant VL S95F (Fab, V domains shown)
VH: B1 VH
VL: B1 VL with W57S, S95F
B29: KB001 mouse Fab variant VL S95I (Fab, V domains shown)
VH: B1 VH
VL: B1 VL with W57S, S95I
B30: KB001 mouse Fab variant VL Q91M (Fab, V domains shown)
VH: B1 VH
VL: B1 VL with W57S, Q91M
B31: KB001 mouse Fab variant VL H90L (Fab, V domains shown)
VH: B1 VH
VL: B1 VL with W57S, H90L
B32: KB001 mouse Fab variant VL I98V (Fab, V domains shown)
VH: B1 VH
VL: B1 VL with W57S, I98V
B33: KB001 mouse Fab variant VL Y92N (Fab, V domains shown)
VH: B1 VH
VL: B1 VL with W57S, Y92N
B34: KB001 mouse Fab variant VL S95C (Fab, V domains shown)
VH: B1 VH
VL: B1 VL with W57S, S95C
B35: KB001 mouse Fab variant VL Y92D (Fab, V domains shown)
VH: B1 VH
VL: B1 VL with W57S, Y92D
B36: KB001 mouse Fab variant VL S95T (Fab, V domains shown)
VH: B1 VH
VL: B1 VL with W57S, S95T
B37: KB001 mouse Fab variant VL S57E (Fab, V domains shown)
VH: B1 VH
VL: B1 VL with W57E
B38: KB001 mouse Fab variant VL Y97I (Fab, V domains shown)
VH: B1 VH
VL: B1 VL with W57S, Y97I
B39: KB001 mouse Fab variant VL I98L (Fab, V domains shown)
VH: B1 VH
VL: B1 VL with W57S, I98L
B40: KB001 mouse Fab variant VL T100P (Fab, V domains shown)
VH: B1 VH
VL: B1 VL with W57S, T100P
B41: KB001 mouse Fab variant VL I98M (Fab, V domains shown)
VH: B1 VH
VL: B1 VL with W57S, I98M

The binders below were run against HRgpA-6H (Porphyromonas gingivalis) (UniProt P28784) (assay: ELISA, FASEBA Fab supernatant on coated HRgpA-6H).
Sequence of UniProt P28784 (P28784 228-860 limits assumed): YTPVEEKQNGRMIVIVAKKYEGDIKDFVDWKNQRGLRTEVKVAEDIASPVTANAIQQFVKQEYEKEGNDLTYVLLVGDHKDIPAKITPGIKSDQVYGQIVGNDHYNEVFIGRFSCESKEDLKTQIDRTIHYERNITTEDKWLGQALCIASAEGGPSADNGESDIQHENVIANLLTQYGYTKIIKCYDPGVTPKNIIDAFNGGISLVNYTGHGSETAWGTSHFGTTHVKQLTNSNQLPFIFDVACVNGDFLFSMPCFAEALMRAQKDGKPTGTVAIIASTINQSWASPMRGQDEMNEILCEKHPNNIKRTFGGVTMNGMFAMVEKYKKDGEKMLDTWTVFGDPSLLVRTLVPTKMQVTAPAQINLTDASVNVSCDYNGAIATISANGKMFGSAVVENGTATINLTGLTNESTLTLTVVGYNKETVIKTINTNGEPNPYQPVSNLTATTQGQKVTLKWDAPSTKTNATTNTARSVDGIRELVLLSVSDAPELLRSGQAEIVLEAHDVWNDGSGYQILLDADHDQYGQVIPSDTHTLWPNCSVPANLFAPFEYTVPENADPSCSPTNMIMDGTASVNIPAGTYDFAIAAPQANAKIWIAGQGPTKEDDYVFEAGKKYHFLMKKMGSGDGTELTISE

First: B1
Second: B2
The OD450 nm of the first is higher: 0.784 for the first, 0.739 for the second.

Compared with B3, B4 is higher in OD450 nm: 0.493 for the first, 0.857 for the second.

Compared with B5, B8 is higher in OD450 nm: 0.654 for the first, 0.865 for the second.

Compared with B9, B10 is lower in OD450 nm: 0.8 for the first, 0.745 for the second.

First: B11
Second: B14
The OD450 nm of the first is higher: 0.775 for the first, 0.746 for the second.

First: B15
Second: B16
The OD450 nm of the first is lower: 0.763 for the first, 0.827 for the second.

Compared with B20, B21 is higher in OD450 nm: 0.662 for the first, 0.893 for the second.

Going from B24 to B25, the OD450 nm falls from 0.769 to 0.687.

First: B26
Second: B27
The OD450 nm of the first is lower: 0.633 for the first, 0.77 for the second.

First: B28
Second: B30
The OD450 nm of the first is higher: 0.837 for the first, 0.757 for the second.

Going from B33 to B34, the OD450 nm rises from 0.773 to 0.849.

Compared with B35, B36 is higher in OD450 nm: 0.758 for the first, 0.871 for the second.

First: B37
Second: B38
The OD450 nm of the first is higher: 0.751 for the first, 0.667 for the second.

First: B39
Second: B40
The OD450 nm of the first is higher: 0.836 for the first, 0.46 for the second.

B41 showed an OD450 nm of 0.729.

With B6 the OD450 nm was 0.461 and 0.428.
For B7, the OD450 nm was 0.863 and 0.884.
For B12, the OD450 nm was 0.855 and 0.82.
With B13 the OD450 nm was 0.75 and 0.756.
For B17, the OD450 nm was 0.709 and 0.694 and 0.701.
With B18 the OD450 nm was 0.804 and 0.79.
For B19, the OD450 nm was 0.726 and 0.722.
With B22 the OD450 nm was 0.83 and 0.872.
For B23, the OD450 nm was 0.9 and 0.889.
With B29 the OD450 nm was 0.846 and 0.817 and 0.791.
For B31, the OD450 nm was 0.785 and 0.694.
With B32 the OD450 nm was 0.832 and 0.838 and 0.787.

These binders were tested against HRgpA-6H (Porphyromonas gingivalis) (UniProt P28784) (assay: ELISA on coated HRgpA-6H, OD relative to parental Fab).

Going from B1 to B2, the Ratio OD(Variant)/OD(WT) falls from 0.961 fold to 0.937 fold.

Going from B3 to B4, the Ratio OD(Variant)/OD(WT) falls from 0.942 fold to 0.91 fold.

Going from B5 to B8, the Ratio OD(Variant)/OD(WT) rises from 0.829 fold to 0.942 fold.

Compared with B9, B10 is higher in Ratio OD(Variant)/OD(WT): 0.871 fold for the first, 0.914 fold for the second.

Compared with B11, B14 is lower in Ratio OD(Variant)/OD(WT): 0.982 fold for the first, 0.915 fold for the second.

Compared with B15, B16 is higher in Ratio OD(Variant)/OD(WT): 0.886 fold for the first, 0.9 fold for the second.

First: B20
Second: B21
The Ratio OD(Variant)/OD(WT) of the first is lower: 0.839 fold for the first, 0.972 fold for the second.

Compared with B24, B25 is lower in Ratio OD(Variant)/OD(WT): 0.975 fold for the first, 0.871 fold for the second.

First: B26
Second: B27
The Ratio OD(Variant)/OD(WT) of the first is lower: 0.802 fold for the first, 0.838 fold for the second.

First: B28
Second: B30
The Ratio OD(Variant)/OD(WT) of the first is higher: 0.911 fold for the first, 0.879 fold for the second.

Compared with B33, B34 is higher in Ratio OD(Variant)/OD(WT): 0.821 fold for the first, 0.924 fold for the second.

Going from B35 to B36, the Ratio OD(Variant)/OD(WT) rises from 0.805 fold to 0.948 fold.

First: B37
Second: B38
The Ratio OD(Variant)/OD(WT) of the first is higher: 0.921 fold for the first, 0.845 fold for the second.

Going from B39 to B40, the Ratio OD(Variant)/OD(WT) falls from 0.955 fold to 0.879 fold.

B41 gave a Ratio OD(Variant)/OD(WT) of 0.833 fold.

In the case of B6, the Ratio OD(Variant)/OD(WT) is reported as 0.881 fold and 0.818 fold.
With B7 the Ratio OD(Variant)/OD(WT) was 0.94 fold and 0.962 fold.
For B12, the Ratio OD(Variant)/OD(WT) was 0.931 fold and 0.893 fold.
B13 was tested, and the Ratio OD(Variant)/OD(WT) was 0.951 fold and 0.958 fold.
With B17 the Ratio OD(Variant)/OD(WT) was 0.823 fold and 0.806 fold and 0.814 fold.
B18 was tested, and the Ratio OD(Variant)/OD(WT) was 0.875 fold and 0.86 fold.
In the case of B19, the Ratio OD(Variant)/OD(WT) is reported as 0.83 fold and 0.825 fold.
For B22, the Ratio OD(Variant)/OD(WT) was 0.904 fold and 0.949 fold.
In the case of B23, the Ratio OD(Variant)/OD(WT) is reported as 0.98 fold and 0.968 fold.
With B29 the Ratio OD(Variant)/OD(WT) was 0.921 fold and 0.889 fold and 0.861 fold.
For B31, the Ratio OD(Variant)/OD(WT) was 0.911 fold and 0.806 fold.
For B32, the Ratio OD(Variant)/OD(WT) was 0.951 fold and 0.958 fold and 0.899 fold.
